We go through two molecules from US20180208648A1 (SCHOLAR ROCK, published 2018).

In one experiment the target is T1, human proGDF11 ARM8 (human, biotinylated, site not stated).
T1 construct: GDF11 having the GDF8 arm domain
T1 chain: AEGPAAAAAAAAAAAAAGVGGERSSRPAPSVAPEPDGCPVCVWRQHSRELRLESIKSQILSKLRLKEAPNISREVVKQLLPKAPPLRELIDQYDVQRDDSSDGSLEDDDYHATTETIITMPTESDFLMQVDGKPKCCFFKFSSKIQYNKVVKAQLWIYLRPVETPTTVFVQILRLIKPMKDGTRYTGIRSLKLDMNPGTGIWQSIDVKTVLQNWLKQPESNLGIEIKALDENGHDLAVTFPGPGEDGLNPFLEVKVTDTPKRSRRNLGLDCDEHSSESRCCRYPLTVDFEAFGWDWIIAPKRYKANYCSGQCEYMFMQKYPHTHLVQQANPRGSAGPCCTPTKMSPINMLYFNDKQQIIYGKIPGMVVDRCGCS
In words: ELISA, biotinylated antigen on neutravidin plate. An excerpt:
Candidate clones were converted to human IgG1 format. Full-length IgG antibodies were further characterized by ELISA for binding to the human and murine pro- and latent-forms of myostatin and GDF11. Antibodies were also screened for binding to the Myostatin prodomain (SEQ ID NO: 85), proTGFDβ1 (human and murine), the mature growth factor of Myostatin (SEQ ID NO: 89), the GDF11 mature growth factor (SEQ ID NO: 90), and proActivin A (SEQ ID NO: 84). Chimeric constructs which swapped portions of the prodomains of Myostatin and GDF11 were designed and produced. For example proGDF11 arm8 (SEQ ID NO: 112) refers to GDF11 having the GDF8 arm domain, and prodomain GDF11 arm8 (SEQ ID NO: 114) refers to the GDF11 prodomain having the GDF8 arm domain. These chimeric proteins were assayed for interaction with screening antibodies by ELISA and allowed for the assessment of binding of antibodies to the ARM or straight jacket portions of the GDF11 prodomain complex. Antibodies were selected based on their cross-reactivity with pro- and latent human and murine GDF11, with no interactions with GDF8, Activin, or TGFβ proteins. Activin A is a homodimer of inhibin-beta A subunits. For example, Inhibin-beta A can heterodimerize with other proteins to produce different Activin proteins.
Enzyme-linked immunosorbent assay (ELISA) analysis is carried out to assess antibody binding. 96-well ELISA assay plates are coated with neutravidin, a deglycosylated version of streptavidin with a more neutral pH. Target proteins are expressed with or without histidine (His) tags and subjected to biotinylation. Biotinylated target proteins are incubated with neutravidin-coated ELISA assay plates for two hours at room temperature and unbound proteins are removed by washing three times with wash buffer (either 25 mM Tris, 150 mM NaCl, 0.05% TWEEN®-20, or 20 mM Hepes pH 7.5, 500 mM NaCl, 0.05% TWEEN®-20). Primary antibodies being tested are added to each well and allowed to incubate at room temperature for 1 hour or more. Unbound antibody is then removed by washing three times with wash buffer. Secondary antibodies capable of binding to primary antibodies being tested and conjugated with detectable labels are then incubated in each well for 30 minutes at room temperature. Unbound secondary antibodies are removed by washing three times with wash buffer.

For experiment [1], the target named is T2, human proGDF11 (human, UniProt O95390 25-407, biotinylated (NHS-PEG4-Biotin), site not stated).
T2 sequence: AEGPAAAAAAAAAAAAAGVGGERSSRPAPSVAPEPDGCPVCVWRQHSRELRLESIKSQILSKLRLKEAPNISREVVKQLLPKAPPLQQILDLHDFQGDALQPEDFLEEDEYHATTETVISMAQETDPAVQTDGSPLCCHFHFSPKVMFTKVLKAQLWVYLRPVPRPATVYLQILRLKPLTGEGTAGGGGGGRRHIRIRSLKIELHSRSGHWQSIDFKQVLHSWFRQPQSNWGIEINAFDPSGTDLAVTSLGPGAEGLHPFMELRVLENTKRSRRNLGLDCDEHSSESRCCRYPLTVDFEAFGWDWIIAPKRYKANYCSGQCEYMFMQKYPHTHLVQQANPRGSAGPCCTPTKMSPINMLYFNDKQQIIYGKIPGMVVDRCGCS
In words: cell-based or functional assay.

The target of a further experiment is T3, human proGDF8 (human, UniProt O14793 24-375, biotinylated, site not stated).
T3 construct: also called hu proGDF8; human proMyostatin
T3 sequence: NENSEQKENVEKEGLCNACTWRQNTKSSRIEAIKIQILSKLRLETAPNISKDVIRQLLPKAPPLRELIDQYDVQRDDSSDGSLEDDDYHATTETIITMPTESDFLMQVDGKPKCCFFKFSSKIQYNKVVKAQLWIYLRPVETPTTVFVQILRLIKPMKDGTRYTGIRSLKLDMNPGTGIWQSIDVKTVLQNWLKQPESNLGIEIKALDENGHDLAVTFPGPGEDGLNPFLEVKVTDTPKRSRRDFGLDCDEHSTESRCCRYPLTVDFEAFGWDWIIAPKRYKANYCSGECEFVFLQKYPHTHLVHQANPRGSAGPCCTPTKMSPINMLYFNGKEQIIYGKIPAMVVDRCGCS
The experiment is described as follows: BLI (ForteBio Octet QKe), antigen on streptavidin biosensor, antibody in solution.

A further experiment addresses T4, human proActivin A (human, UniProt P08476 21-426, biotinylated (immobilized on streptavidin biosensors), site not stated).
T4 construct: also called human Activin A; Inhibin-beta A pro-protein
T4 sequence: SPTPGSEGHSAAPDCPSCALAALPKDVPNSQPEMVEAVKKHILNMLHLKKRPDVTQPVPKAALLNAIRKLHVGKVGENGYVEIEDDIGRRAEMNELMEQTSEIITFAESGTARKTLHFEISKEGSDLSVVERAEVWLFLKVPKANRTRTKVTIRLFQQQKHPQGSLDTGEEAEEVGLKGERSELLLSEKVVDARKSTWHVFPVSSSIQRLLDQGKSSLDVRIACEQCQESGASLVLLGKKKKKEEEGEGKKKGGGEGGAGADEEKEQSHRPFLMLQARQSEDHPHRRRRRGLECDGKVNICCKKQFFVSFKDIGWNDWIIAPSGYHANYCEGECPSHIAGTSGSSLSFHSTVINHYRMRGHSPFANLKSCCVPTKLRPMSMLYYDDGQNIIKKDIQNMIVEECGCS
Described as above.

The target in another experiment is T5, human latent GDF8 (human, UniProt O14793 24-375, biotinylated (immobilized on streptavidin biosensors), site not stated).
T5 construct: also called human latent Myostatin
T5 sequence: T3 sequence
The description is as above.

Experiment [2] addresses T2, human proGDF11. The experiment is described as follows: BLI (ForteBio Octet).
The next experiment addresses T6, human latent GDF11 (human, UniProt O95390 25-407, biotinylated, site not stated).
T6 construct: also called hu latent GDF11
T6 sequence: T2 sequence
The experiment is described as follows: BLI (ForteBio Octet).

Where a chain is given by its changes, count along the chain named.

B1: GDF11 Inh-2 (antibody, V domains shown)
VH: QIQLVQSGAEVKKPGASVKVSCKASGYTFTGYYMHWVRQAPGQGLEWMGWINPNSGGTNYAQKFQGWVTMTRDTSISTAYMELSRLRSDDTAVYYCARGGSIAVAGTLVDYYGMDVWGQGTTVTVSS
VL: DIQMTQSPSSLSASVGDRVTITCQASQDISNYLNWYQQKPGKAPKLLIYDASNLETGVPSRFSGSGSGTDFTLTISSLQPEDVATYYCQKYSTAPLTFGGGTKVEIKR
notes: also called Clone GDF11 Inh-2
Turning to B1, the binding result is “no binding” with human proGDF11 ARM8, “no binding (tested: 50 µg/mL)” with human proGDF8, “no binding (tested: 50 µg/mL)” with human proActivin A and “no binding (tested: 50 µg/mL)” with human latent GDF8. For the same molecule, the “EC50, proGDF11 activation assay at 50 nM proGDF11” value with human proGDF11 [1] turned out to be 27.5 nM. Further, the results for the Kd in the experiment with human proGDF11 [2] and with human latent GDF11 were 0.91 nM and 0.27 nM, respectively.

B2: GDF11 Inh-4 (antibody, V domains shown)
VH: QVQLVQSGAEVKKPGASVKVSCKASGYTFTSYGISWVRQAPGQGLEWMGWISAYNGNTNYAQKLQGRVTMTTDTSTSTAYMELRSLRSDDTAVYYCARTPPLWFGEYGAFDIWGQGAMVTVSS
VL: B1 VL with E81D, V83F, K90Q, Y91S, S92Y, A94T, L96I, G100Q, K103R, V104L
notes: also called Clone GDF11 Inh-4
On to B2, for which the binding result in the experiment with human proGDF11 ARM8 is on record as “no binding”; with human proGDF8, “no binding (tested: 50 µg/mL)”; with human proActivin A, “no binding (tested: 50 µg/mL)”; with human latent GDF8, “no binding (tested: 50 µg/mL)”. In addition, the “EC50, proGDF11 activation assay at 50 nM proGDF11” value with human proGDF11 [1] came out at 26.7 nM. Also, the figures for the Kd with human proGDF11 [2] and in the experiment with human latent GDF11 were 1.08 nM and 0.31 nM, respectively.
